The results in this text go back to publication PMC12173652.

The target in this assay is epidermal growth factor receptor (EGFR) (human (endogenous in HeLa)) (UniProt P00533).

Consider “pIII::EGF fusion displayed on the helper phage M13SW7-EGF (epidermal growth factor, GGGS linker, M13 minor coat protein pIII) (from UniProt P69168 19-424)”, for which the fold difference in luciferase expression (EGF^+/EGF^−), A549, mini phagemid, +TurboFect, 96 h worked out at 9.96 fold; the fold difference in luciferase expression (EGF^+/EGF^−), HeLa, full phagemid, +TurboFect, 96 h is 261 fold; the fold difference in luciferase expression (EGF^+/EGF^−), HeLa, mini phagemid, +TurboFect, 96 h was 705 fold; the fold difference in luciferase expression (EGF^+/EGF^−), HeLa, mini phagemid, −TurboFect, 96 h was determined as 25.6 fold. Also, the fold difference in luciferase expression (EGF^+/EGF^−), MRC-5, full phagemid, −TurboFect, 96 h was found to be 4.14 fold and the fold difference in luciferase expression (EGF^+/EGF^−), MRC-5, mini phagemid, +TurboFect, 96 h amounted to 5.73 fold.
